Laboratory results published in US20190262327A1, “COMBINATION OF A BACE INHIBITOR AND AN ANTIBODY OR ANTIGEN-BINDING FRAGMENT FOR THE TREATMENT OF A DISORDER ASSOCIATED WITH THE ACCUMULATION OF AMYLOID BETA” (ASTRAZENECA AB, priority 2016, published 2019).
Entries after “also recorded” stand apart in the source; their conditions may differ.

Assays:
Amyloid beta plaques = assay: In vivo binding to Amyloid beta plaques in aged Tg2576 mice (immunohistochemistry); design: species or system mouse; conditions: 168 hours after single i.v. dose of 10 or 30 mg/kg
Description: Abet0380-GL IgG1-TM was tested for its ability to bind to Amyloid beta plaques in aged Tg2576 mice after a single peripheral dose. Animal experimentations were performed in accordance with relevant guidelines and regulations provided by the Swedish Board of Agriculture. The ethical permission was provided by an ethical board specialized in animal experimentations: the Stockholm Sodra Animal Research Ethical Board. Seventeen-month old female Tg2576 mice (n=5) received a single dose of vehicle, a positive control antibody at 30 mg/kg or the Abet0380-GL IgG1-TM antibody at 10 or 30 mg/kg by intravenous injection with a dosing vehicle of 25 mM Histidine, 7% Sucrose, 0.02% p80 surfactant, pH 6.0 at 5 mL/kg. At 168 hours after dose, animals were deeply anaesthetized and perfused with room temperature PBS followed by cold (4° C.) phosphate buffered 4% paraformaldehyde (PFA). Animals were then sacrificed by decapitation and brains were dissected and immersions fix in PFA at 4° C. for 72 hours. The fixative was exchanged to PBS containing 0.1% sodium azide and tissues were stored at 4° C. until further processed. […]
Scoring of the staining was carried out in a blinded fashion under 10× optical magnification. […] The intensity of plaque labelling was scored according to a relative intensity scale from 0 (no staining of plaques) up to 4 (intense decoration of plaques).

[1] = target: T1, Amyloid beta 1-42 peptide (Rattus norvegicus, UniProt P08592); assay: Total Amyloid beta 1-42 peptide in rat brain homogenates (ELISA); assay type: in vivo; conditions: Sprague-Dawley rats, 0.25-10 mg/kg weekly over 14 days
T1 construct: Measurement of free Amyloid beta 1-42 peptide in rat CSF; from tissue; host or cells: CSF and brain homogenate of Sprague-Dawley rats
T1 sequence (P08592 672-713 limits assumed): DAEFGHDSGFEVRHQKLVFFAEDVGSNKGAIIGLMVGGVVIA
Description: Eight-week old male albino Harlan Sprague-Dawley rats (n=8-12) received a single dose of Abet0380-GL IgG1-TM antibody by intravenous injection with a dosing vehicle of 25 mM Histidine, 7% Sucrose, 0.02% p80 surfactant, pH 6.0 at 5 ml/kg. Dosing solutions were made just before dosing. Animals were anaesthetized at the time indicated and cerebrospinal fluid (CSF) was aspirated from the cistema magna. CSF samples were centrifuged for 10 minutes at approximately 3000× g at 4° C. within 20 minutes of sampling to remove cells or debris. Samples were then frozen on dry ice and stored at −70° C. for subsequent analysis.
Animals were sacrificed by decapitation, brain tissue was dissected and Amyloid beta peptides were extracted from brain tissue in diethylamine (DEA; Fluka. Sigma. UK; cat: 31729). Briefly, frozen brain tissue was homogenized in 0.2% DEA and 50 mM NaCl (Merck, USA: cat: 1.06404.1000). Brain homogenates were ultracentrifuged at 133,000×g, for 1 hour. Recovered supernatants were neutralized to pH 8.0 with 2 M Tris-HCl (TRIZMA®-hydrochloride; Sigma, UK; cat: 93363) and stored at −70° C. until analysis. Animal experimentations were performed in accordance with relevant guidelines and regulations provided by the Swedish Board of Agriculture. The ethical permission was provided by an ethical board specialized in animal experimentations: the Stockholm Södra Animal Research Ethical Board.
Measurement of total (free and Abet0380-GL bound) Amyloid beta 1-42 peptide in rat brain homogenates was performed using modifications of the mouse Amyloid beta (1-42) colorimetric ELISA kit (Invitrogen, UK: cat: KMB3441). […] To stop the reaction, 100 μl of Stop Solution was added to each well and the plate was read within 2 hours at an absorbance of 450 nm. […]
The ability of antibody Abet0144-GL to sequester amyloid beta 1-42 was investigated in a PK-PD study in normal rats. […] Free and total amyloid beta 1-42 levels were measured using assays described above.

Amyloid plaques = assay: In vitro immunohistochemistry on human Alzheimer's Disease brain sections
Text: Briefly, the lead antibodies were screened on human Alzheimer's Disease brain sections and Tg2576 mouse brain sections to identify anti-Amyloid beta 1-42 antibodies that bound to Amyloid plaques in vitro.
In these experiments, human brain tissue was isolated from the frontal cortex of two individuals with severe Alzheimer's Disease (ApoE genotype 3/3, Braak stage 6 and ApoE genotype 4/3, Braak stage 5). As a control, equivalent tissue was isolated from one non-dementia individual (ApoE genotype 3/3, Braak stage 1). Mouse brain tissue was isolated from Tg2576 mice at an age of 15 months (2 mice) and 22 months (2 mice). Antibodies were tested at concentrations of 2, 5, 10 and 20 ug ml^−1.

B1: Abet0380-GL IgG1-TM: germlined Abet0380; VH SEQ ID NO: 524, VL SEQ ID NO: 533; human IgG1 triple mutant format (antibody, listed as Homo sapiens, V domains shown)
VH: EVQLLESGGGLVQPGGSLRLSCAASMGNFNYQTMWWVRQAPGKGLEWVSVIGKTNENIAYADSVKGRFTISRDNSKNTLYLQMNSLRAEDTAVYYCAREWMDHSRPYYYYGMDVWGQGTLVTVSS
VL: SYELTQPPSVSVSPGQTASITCSGHNLEDKFASWYQQKPGQSPVLVIYRDDKRPSGIPERFSASNSGHTATLTISGTQAMDEADYYCSSQDTVTRVFGGGTKLTVL
modifications: human IgG1 triple mutant constant region; /note=“Abet0380-GL”
notes: germlined Abet0380; human IgG1 triple mutant format
- in vivo decoration of Amyloid beta plaques or CAA (Amyloid beta plaques): did not decorate; also recorded: does not show any in vivo plaque decoration
- effect on total Amyloid beta 1-42 peptide in brain tissue [1]: dose-dependent increase
- plaque recognition score (Amyloid plaques; human AD brain section, ApoE genotype 3/3, Braak stage 6, 10 μg/ml): 3
- core plaques (CP) staining score (Amyloid plaques; human AD brain sections): 3
- staining of diffuse plaques (DP) and cerebral amyloid angiopathy (CAA) plaques (Amyloid plaques; relative to core plaques, Tg2576 and human AD brain sections): to a lesser extent
